From patent publication US10428308B2, “Mesoderm and definitive endoderm cell populations” (Icahn School of Medicine at Mount Sinai, priority 2005, dated 2019)

Legend:
CD4-HNF/GFP-T ES cells = test: Activin A / Wnt3a induction of ES derived primitive streak like cells in serum free culture, with pathway inhibitors; type: cell-based, mouse; settings: for development of GFP^+ CD4^+ cells with either inducer (activin or Wnt): DKK1 100 ng/ml or SB-431542 6 uM
Protocol: FIGS. 34A, 34B and 34C depict ES cells differentiated in serum free conditions with Activin A Wnt3a and/or inhibitors of these pathways. ES cells were cultured in serum free media for two days then trypsinized to obtain a single cell population. These cells were then reaggregated with the indicated conditions. At day six, the EBs were plated on matrigel coated dishes in serum free media.
Liu et. al. (1999) Nat. Genet. 22: 361-4. […] Activin stimulation leads to high levels of CD4 expression that persist after loss of GFP-Bry expression at day 6. […] Wnt does however stimulate expression of the posterior primitive streak markers HoxBI and Tbx6, while activin only induces Tbx6. […] At day 6, EBs that were stimulated with either activin or Wnt3a were plated on matrigel in serum free media to allow further development.
Considering that Wnt stimulation induces nodal and activin treatment induces Wnt3 (FIG. 34B), it is unknown whether activin/nodal signaling or Wnt Signaling alone can induce primitive streak formation or whether both factors are required together. CD4-HNF/GFP-T ES cells were induced with either activin or Wnt in conjunction with specific inhibitors of these pathways. DKK1 was used to inhibit Wnt signaling while the small molecule inhibitor SB-431542 (SB) was used to block Nodal/TGFβ signaling. DKK1 functions by binding the Wnt co-receptors, LRP5 and LRP6, which are essential for activation of the βcatenin signaling pathway. […] Inman et. al. (2002) MoI. Pharmacol. 62: 65-74. […] Therefore, to induce mesoderm and endoderm germ layers and their derivative tissues, both activin/Nodal and Wnt signals are required initially.

ALK4, 5, and 7 = settings: Inman et al. (2002); cited from earlier work
[1] = system: GFP^+ hCD4^med cells from CD4-HNF/GFP-T ES cells; test: Reaggregation of sorted GFP^+ hCD4^med cells in serum free media with DKK1 and/or activin; type: cell-based, mouse
Protocol: FIGS. 35A and 35B depict, the effects of DKK1 and activin on EB differentiation. EBs differentiated and sorted as in FIG. 32 for GFP^+ hCD4^med were allowed to reaggregate in serum replacement containing media alone or with the addition of human DKK1 100 ng/ml, activin 100 ng/ml, or both factors together. […] FIG. 35B depicts endodermal gene expression by RT PCR. The sorted populations were treated as indicated above for 2 days, then plated on matrigel in serum free media without factors added. Gene expression was analyzed an additional 5 days after plating.
Nodal, a key molecule involved in mesoderm/endoderm induction in vivo, signals through the same receptors as activin. It is also known that Nodal as well as inhibitors for Wnt signaling are expressed preferentially in or around the anterior primitive streak. Considering that the endoderm forms from the anterior primitive streak, it is possible that nodal/activin signaling in combination with inhibition of Wnt signals induces endoderm formation. To test this hypothesis, CD4-HNF/GFP-T ES cells were differentiated for 3.25 days in serum and GFP^+ hCD4^med cells were sorted and reaggregated in serum free media with no factor, DKK1 (Wnt inhibitor), activin, or activin and DKK1. The effect of these culture conditions on hCD4-HNF3β and GFP-Bry levels were analyzed by flow cytometry (FIG. 35A). With serum free media alone, hCD4 expression was lost after 1 day reaggregation. […] To further test this idea, sorted cells reaggregated for two days in the culture conditions above were washed with serum free media without factors and plated onto martrigel in serum free media. After 5 days, the cultures were harvested and gene expression determined by RT PCR. […] These culture conditions have the potential to allow the large scale production of endodermal derived tissues such as the pancreas and liver.

EBs (brachyury^+ cells) = test: BMP4 added to developing EBs in serum free cultures, GFP/Flk-1 expression; type: cell-based, mouse; settings: BMP4 20 ng/ml
Protocol: FIG. 8B depicts expression of brachyury and Flk-1 on cell populations generated from GFP+/Flk-1^− cells cultured for 20 hours under the indicated conditions.
To assess the role of serum in the development of brachyury^+ cells, EBs were differentiated the absence of serum. EBs did develop under these conditions, although they were somewhat smaller than those found in normal conditions. […] Significant numbers of GFP^+/Flk-1^− and GFP^+/Flk-1^+ cells did develop when serum was added to the cultures. […] As a first step in identifying factors that might play a role in this process, BMP4 (20 ng/ml) was added to the developing EBs in the serum free cultures. […] To determine if BMP4 could induce GFP^+/Flk-1^+ from GFP^+/Flk-1^− cells that were induced in the presence of serum, GFP^+/Flk-1^− cells were isolated from EBs differentiated for three days in the presence of serum. These cells were reaggregated in medium alone, in medium with serum or in medium with BMP4. […] As expected, the same population generated a large GFP^+/Flk-1^+ population when serum was added to the cultures. Consistent with the findings in the primary differentiation cultures, BMP4 was unable to induce the development of significant numbers of GFP^+/Flk-1^+ cells from the cultured GFP^+/Flk-1^− cells.

## NC(=O)c1ccc(-c2nc(-c3ccc4c(c3)OCO4)c(-c3ccccn3)[nH]2)cc1 [SB-431542]
CD4-HNF/GFP-T ES cells
  development of GFP^+ CD4^+ cells with either inducer (activin or Wnt): completely blocked
ALK4, 5, and 7
  effect on BMP signaling: does not, however, block BMP signaling
  receptor specificity: specific inhibitor of the receptors ALK4, 5, and 7

B1: DKK1: Wnt signaling inhibitor binding the Wnt co-receptors LRP5 and LRP6 (protein, UniProt O94907 32-266, looked up)
Dickkopf-related protein 1: TLNSVLNSNAIKNLPPPLGGAAGHPGSAVSAAPGILYPGGNKYQTIDNYQPYPCAEDEECGTDEYCASPTRGGDAGVQICLACRKRRKRCMRHAMCCPGNYCKNGICVSSDQNHFRGEIEETITESFGNDHSTLDGYSRRTTLSSKMYHTKGQEGSVCLRSSDCASGLCCARHFWSKICKPVLKEGQVCTKHRRKGSHGLEIFQRCYCGEGLSCRIQKDHHQASNSSRLHTCQRH
CD4-HNF/GFP-T ES cells
  development of GFP^+ CD4^+ cells with either inducer (activin or Wnt): completely blocked
[1]; 2 days treatment, then 5 days on matrigel without factors
  endoderm gene expression by RT PCR (pancreas, liver, intestine genes): None of these genes were detected
[1]; after 1 day reaggregation, DKK1 100 ng/ml, activin 100 ng/ml
  hCD4 (HNF3β) level by flow cytometry: allowed some cells to retain low levels of hCD4

B2: BMP4: growth factor purchased from R&D systems (protein, UniProt P12644 293-408, looked up)
Bone morphogenetic protein 4: SPKHHSQRARKKNKNCRRHSLYVDFSDVGWNDWIVAPPGYQAFYCHGDCPFPLADHLNSTNHAIVQTLVNSVNSSIPKACCVPTELSAISMLYLDEYDKVVLKNYQEMVVEGCGCR
EBs (brachyury^+ cells); serum free primary differentiation cultures
  development of GFP^+/Flk-1^+ population: did not support the development of the GFP^+/Flk-1^+ population
EBs (brachyury^+ cells); serum free, within 3 days of differentiation
  induction of brachyury^+ cells: induce a significant population of brachyury^+ cells

B3: Wnt3a: recombinant Wnt3a (protein, UniProt P56704 19-352, looked up)
Protein Wnt-3a: SYPIWWSLAVGPQYSSLGSQPILCASIPGLVPKQLRFCRNYVEIMPSVAEGIKIGIQECQHQFRGRRWNCTTVHDSLAIFGPVLDKATRESAFVHAIASAGVAFAVTRSCAEGTAAICGCSSRHQGSPGKGWKWGGCSEDIEFGGMVSREFADARENRPDARSAMNRHNNEAGRQAIASHMHLKCKCHGLSGSCEVKTCWWSQPDFRAIGDFLKDKYDSASEMVVEKHRESRGWVETLRPRYTYFKVPTERDLVYYEASPNFCEPNPETGSFGTRDRTCNVSSHGIDGCDLLCCGRGHNARAERRREKCRCVFHWCCYVSCQECTRVYDVHTCK
CD4-HNF/GFP-T ES cells; day 6 EBs plated on matrigel a further 6 days, serum free
  endodermal gene expression (Alb, Aat, HNF4, Pdxl) by RT-PCR: did not express any of these markers
CD4-HNF/GFP-T ES cells; serum free, Activin A 25 ng/ml or Wnt3a 100 ng/ml
  induction of GFP^+ CD4^+ cells: initially induce GFP^+ CD4^+ cells
